Experimental findings from US20250381305A1, “METHOD FOR TREATING A PARKINSON'S DISEASE” (SINEUGENE THERAPEUTICS CO., LTD., priority 2022, published 2025) are described below.

Entries after “also recorded” stand apart in the source; their conditions may differ.

Sequences and labels used below:
B1: TRIM40: other TRIM protein overexpressed in N2a cell line by scAAV9 infection, as comparison (protein, UniProt Q3UWA4 1-246, looked up)
chain: MGSLDKDNQDICPICLDPLKEAVSTDCRHLFCRMCLTQHMDKASVSGILSCPVCRKPCSEGVLGDNYICHTHQKRVRRFCEASGHLLCEECLQSPEHQSHTELSIENAISHYKERLNRRSRKLRKDLGNLQQLKAQEKKMLQALQVDCECHRLRTDLQNQDQTKEQLKALPWHWLDQEDLPEEVAKIFSFSEAVTQLSILVSGLERMAKDLDASTLKDASDLLDRSAPQKLEGLLSRVSPAGPKLS
modifications: full-length
notes: other TRIM protein overexpressed in N2a cell line by scAAV9 infection, as comparison
B2: Coiled-PRYSPRY: TRIM72 truncation with coiled-coil and PRYSPRY domains, expressed by scAAV9 (probably SEQ ID NO: 11) (protein)
chain: QQKLQLQEACMRKEKSVAVLEHQLVEVEETVRQFRGAVGEQLGKMRVFLAALEGSLDREAERVRGEAGVALRRELGSLNSYLEQLRQMEKVLEEVADKPQTEFLMKYCLVTSRLQKILAESPPPARLDIQLPIISDDFKFQVWRKMFRALMPALEELTFDPSSAHPSLVVSSSGRRVECSEQKAPPAGEDPRQFDKAVAVVAHQQLSEGEHYWEVDVGDKPRWALGVIAAEAPRRGRLHAVPSQGLWLLGLREGKILEAHVEAKEPRALRSPERRPTRIGLYLSFGDGVLSFYDASDADALVPLFAFHERLPRPVYPFFDVCWHDKGKNAQPLLLV
modifications: expressed by scAAV9; TRIM72 coiled-coil domain plus PRYSPRY domain (135-470aa)
B3: TRIM72: full-length TRIM72 protein with Ring finger, B-box, coiled-coil and PRYSPRY domains, overexpressed by lentivirus or scAAV9 (protein, listed as Homo sapiens)
chain: MSAAPGLLHQELSCPLCLQLFDAPVTAECGHSFCRACLGRVAGEPAADGTVLCPCCQAPTRPQALSTNLQLARLVEGLAQVPQGHCEEHLDPLSIYCEQDRALVCGVCASLGSHRGHRLLPAAEAHARLKTQLPQQKLQLQEACMRKEKSVAVLEHQLVEVEETVRQFRGAVGEQLGKMRVFLAALEGSLDREAERVRGEAGVALRRELGSLNSYLEQLRQMEKVLEEVADKPQTEFLMKYCLVTSRLQKILAESPPPARLDIQLPIISDDFKFQVWRKMFRALMPALEELTFDPSSAHPSLVVSSSGRRVECSEQKAPPAGEDPRQFDKAVAVVAHQQLSEGEHYWEVDVGDKPRWALGVIAAEAPRRGRLHAVPSQGLWLLGLREGKILEAHVEAKEPRALRSPERRPTRIGLYLSFGDGVLSFYDASDADALVPLFAFHERLPRPVYPFFDVCWHDKGKNAQPLLLVGPEGAEA
B4: PRYSPRY single domain: TRIM72 truncation with the PRYSPRY domain only, 278aa-470aa (probably SEQ ID NO: 6) (protein)
chain: RKMFRALMPALEELTFDPSSAHPSLVVSSSGRRVECSEQKAPPAGEDPRQFDKAVAVVAHQQLSEGEHYWEVDVGDKPRWALGVIAAEAPRRGRLHAVPSQGLWLLGLREGKILEAHVEAKEPRALRSPERRPTRIGLYLSFGDGVLSFYDASDADALVPLFAFHERLPRPVYPFFDVCWHDKGKNAQPLLLV
modifications: human TRIM72 PRYSPRY domain (278-470 aa)
B5: coiled-coil single domain: TRIM72 truncation with the coiled-coil domain only, 135aa-232aa (probably SEQ ID NO: 5) (protein)
chain: QQKLQLQEACMRKEKSVAVLEHQLVEVEETVRQFRGAVGEQLGKMRVFLAALEGSLDREAERVRGEAGVALRRELGSLNSYLEQLRQMEKVLEEVADK
modifications: human TRIM72 coiled-coil domain (135-232 aa)
B6: C242A: Flag-tagged TRIM72 mutant, cysteine at position 242 substituted by alanine; blocks oligomer formation (protein, UniProt Q1XH17 1-477, looked up, variant C242A)
Tripartite motif-containing …: MSAAPGLLRQELSCPLCLQLFDAPVTAECGHSFCRACLIRVAGEPAADGTVACPCCQAPTRPQALSTNLQLSRLVEGLAQVPQGHCEEHLDPLSIYCEQDRTLVCGVCASLGSHRGHRLLPAAEAQARLKTQLPQQKMQLQEACMRKEKTVAVLEHQLVEVEETVRQFRGAVGEQLGKMRMFLAALESSLDREAERVRGDAGVALRRELSSLNSYLEQLRQMEKVLEEVADKPQTEFLMKFALVTSRLQKILSESPPPARLDIQLPVISDDFKFQVWKKMFRALMPALEELTFDPSSAHPSLVVSSSGRRVECSDQKAPPAGEDTRQFDKAVAVVAQQLLSQGEHYWEVEVGDKPRWALGVMAADASRRGRLHAVPSQGLWLLGLRDGKILEAHVEAKEPRALRTPERPPARIGLYLSFADGVLAFYDASNPDVLTPIFSFHERLPGPVYPIFDVCWHDKGKNAQPLLLVGPEQEQA
modifications: Flag tag
B7: C14A: Flag-tagged TRIM72 mutant, cysteine at position 14 substituted by alanine; E3 ligase inactive (protein, UniProt Q1XH17 1-477, looked up, variant C14A)
Tripartite motif-containing …: MSAAPGLLRQELSAPLCLQLFDAPVTAECGHSFCRACLIRVAGEPAADGTVACPCCQAPTRPQALSTNLQLSRLVEGLAQVPQGHCEEHLDPLSIYCEQDRTLVCGVCASLGSHRGHRLLPAAEAQARLKTQLPQQKMQLQEACMRKEKTVAVLEHQLVEVEETVRQFRGAVGEQLGKMRMFLAALESSLDREAERVRGDAGVALRRELSSLNSYLEQLRQMEKVLEEVADKPQTEFLMKFCLVTSRLQKILSESPPPARLDIQLPVISDDFKFQVWKKMFRALMPALEELTFDPSSAHPSLVVSSSGRRVECSDQKAPPAGEDTRQFDKAVAVVAQQLLSQGEHYWEVEVGDKPRWALGVMAADASRRGRLHAVPSQGLWLLGLRDGKILEAHVEAKEPRALRTPERPPARIGLYLSFADGVLAFYDASNPDVLTPIFSFHERLPGPVYPIFDVCWHDKGKNAQPLLLVGPEQEQA
modifications: Flag tag

One test relates to N2a cell line. As to the kind of experiment: CCK-8 cell viability after H2O2 treatment, expression by scAAV9 infection. To be noted: scAAV9 infection MOI 10,000 vg/cell, H2O2 300 μM, 1 hour. The test is classed as cell-based. As to the method:
(§1) Cell viability was assessed using CCK-8. Cells were seeded in a 96-well plate at a density of 1.5×10^3cells per well for Arsenite treatment or 7×10^3 cells per well for H2O2 treatment. Arsenite (Sigma) was added into each well at concentration of 0.125 mM, 0.25 mM or 0.5 mM, and washed the cells after 2 hours incubation at 37° C. For H2O2-treatment experiment, scAAV9 infection (estimated multiplicity of infection (MOI): 10,000 vg/cell) was done for 24 hours at 17 hours after cell seeding. Then, H2O2 was added into each well at concentration of 300 μM, and washed the cells after 1 hours incubation at 37° C. When the cell has been processed by Arsenite or H202. a total of 10 μL of CCK-8 solution (Yeasen) was added to each well. After another 2 hours of incubation at 37° C., the optical density (OD) value of each well was measured using a microplate reader with an excitation wavelength of 450 nm. The cell viability of 293 FT was calculated. The experiment was repeated at least three times to obtain the mean value.
To further investigate which key domains of TRIM72 protein are necessary to protect neurons, different domain-deleted TRIM72 were constructed and overexpressed in N2a cell line by scAAV9 infection (FIG. 1). CCK-8 was used to measure the cell viability after H2O2 treatment. Indeed, cell viability was decreased after H2O2 treatment (FIG. 10).
CCK-8 was used to measure the cell viability after H2O2 treatment.
For the molecule B1, the “cell viability under H2O2 stress (protective effect)” value is “rather than TRIM40 elicit protective effects from oxidative stress”. On to B2, for which the “cell viability under H2O2 stress (protective effect)” value is “sufficient to protect cells from oxidative stress”. The same measure, in the same setting: for B3 the value was “elicit protective effects from oxidative stress”. The same measure, in the same setting: with B4 the entry was “sufficient to protect cells from oxidative stress”; with B5, “not the coiled-coil single domain was sufficient to protect cells from oxidative stress”.

Another test has as its system 293 FT. As to the kind of experiment: Cell viability after stress challenge, TRIM72 point mutants. It is filed as cell-based. To be noted: Flag-tagged point mutants vs wildtype; oxidative stress. As to the method: For TRIM72 stable expression cell line construction, DNA fragments of the series of Flag-tagged TRIM72 mutants or domain deletion or single domain were amplified from the corresponding TRIM72 expression vector by PCR and inserted into pLJM1-EGFP lentiviral vector between BsrGI and EcoRI sites to generate the series of Flag-tagged TRIM72 mutants or domain deletion or single domain fused with EGFP in lentiviral vector.
as §1, with “When the cell has been processed by Arsenite or H202. a total of 10 μL of CCK-8 solution (Yeasen) was added to each well.” left out, “The experiment was repeated at least three times to obtain the mean value.” left out
Previous study determined that TRIM72 senses changes in the oxidative environment and forms oligomer complex to complete membrane repair. […]
B6: the “cell viability after stress challenge (protective effect of TRIM72 mutants)” value is given as “abolished the anti-stress effect of TRIM72; also recorded: blocked TRIM72 protective effect”. Turning to B7, the “cell viability after stress challenge (protective effect of TRIM72 mutants)” value was “reserved equal protective effect to wildtype”.
